Reference: patent publication US20230357429A1 (JANUX THERAPEUTICS, published 2023)
Positions count from the first letter of the chain named. Names and notes keep the numbering of the source. Where two headings read alike, the source gives them in different places. Where no end group is shown, it is not given here.

Key:
[1] = biological target: T1, Human TROP2 Full length (human, UniProt P09758 31-323); test: cell-based or functional assay
T1 sequence: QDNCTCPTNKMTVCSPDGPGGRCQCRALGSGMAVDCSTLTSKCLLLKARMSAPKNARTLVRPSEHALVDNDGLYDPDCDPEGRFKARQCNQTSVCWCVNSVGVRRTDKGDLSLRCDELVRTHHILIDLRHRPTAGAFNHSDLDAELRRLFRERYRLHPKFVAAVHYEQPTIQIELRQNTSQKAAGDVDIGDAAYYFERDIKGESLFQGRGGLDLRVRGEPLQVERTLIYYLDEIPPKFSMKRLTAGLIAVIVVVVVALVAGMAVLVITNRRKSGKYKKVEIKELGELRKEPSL

[2] = biological target: T2, Cyno TROP2 Full length (cynomolgus monkey, UniProt P09758 31-323 (human entry)); test: cell-based or functional assay
T2 chain: T1 sequence with M32V, S63N, I200V, M262V, T268S

[3] = biological target: T3, Human TROP2 ECD (31-274 AA), biotinylated (human, UniProt P09758 31-274, biotinylated (site not stated)); test: ELISA on immobilized TROP2
T3 construct: also called tumor-associated calcium signal transducer 2; Human TROP2-biotin
T3 sequence: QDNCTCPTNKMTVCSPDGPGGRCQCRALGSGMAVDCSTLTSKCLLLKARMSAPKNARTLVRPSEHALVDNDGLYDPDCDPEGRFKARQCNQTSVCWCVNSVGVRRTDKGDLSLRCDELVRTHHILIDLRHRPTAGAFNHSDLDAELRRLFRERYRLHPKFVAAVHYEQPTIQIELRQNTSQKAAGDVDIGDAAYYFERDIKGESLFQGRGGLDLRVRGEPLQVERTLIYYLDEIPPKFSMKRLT

[4] = biological target: T3, Human TROP2 ECD (31-274 AA), …; test: ELISA on immobilized TROP2; remark: listed apart in the source
[5] = biological target: T3, Human TROP2 ECD (31-274 AA), …; test: ELISA on immobilized TROP2; remark: listed apart in the source
[6] = biological target: T3, Human TROP2 ECD (31-274 AA), …; test: ELISA on immobilized TROP2; remark: listed apart in the source
[7] = biological target: T4, Peptide-68 (cysteine pairing not given here; also: biotinylated, site not given here); test: ELISA, TCE on captured biotin-peptide
T4 construct: mask peptide for the CD3 scFv
T4 peptide: DWCWYSPDNDGLCD

[8] = biological target: T5, Peptide-65 (cysteine pairing not given here; also: biotinylated, site not given here); test: ELISA, TCE on captured biotin-peptide
T5 construct: mask peptide for the CD3 scFv
T5 peptide: QGCGTIADPEPHCW

[9] = biological target: T6, Peptide-71 (cysteine pairing not given here; also: biotinylated, site not given here); test: ELISA, TCE on captured biotin-peptide
T6 construct: mask peptide for the CD3 scFv
T6 peptide: VDCGPDGDESILCY

[10] = biological target: T7, Peptide-72 (cysteine pairing not given here; also: biotinylated, site not given here); test: ELISA, TCE on captured biotin-peptide
T7 construct: mask peptide for the CD3 scFv
T7 peptide: AYCGPEFDESVGCM

[11] = biological target: T8, Peptide-75 (cysteine pairing not given here; also: biotinylated, site not given here); test: ELISA, TCE on captured biotin-peptide
T8 construct: mask peptide for the CD3 scFv
T8 peptide: GSACLGPEWEVCPY

[12] = biological target: T9, Peptide-74 (cysteine pairing not given here; also: biotinylated, site not given here); test: ELISA, TCE on captured biotin-peptide
T9 construct: mask peptide for the CD3 scFv
T9 peptide: ASQCLGPEWEVCPY

[13] = biological target: T10, Peptide-69 (cysteine pairing not given here; also: biotinylated, site not given here); test: ELISA, TCE on captured biotin-peptide
T10 construct: mask peptide for the CD3 scFv
T10 peptide: SECLVDLQSDPCYW

[14] = biological target: T11, CD3 (biotinylated CD3 antigen) (human, UniProt P07766 23-126, limits assumed, biotinylated (site not stated)); test: ELISA, TCE on captured biotin-CD3
T11 construct: also called CD3ε; human CD3

[15] = biological target: T12, Peptide-66 (cysteine pairing not given here; also: biotinylated, site not given here); test: ELISA, TCE on captured biotin-peptide
T12 construct: mask peptide for the CD3 scFv
T12 peptide: GSQCLGPEWEVCPY

[16] = biological target: T11, CD3 (biotinylated CD3 antigen); test: ELISA: biotinylated CD3 captured on neutravidin plates, TCE titrated, HRP secondary antibody
[17] = biological target: T13, TCE-37 (anti-CD3 scFv F104A; anti-TROP2 F108A); test: competition ELISA, TCE on captured CD3
T13 construct: scFv on the Fab heavy chain

[18] = biological target: T14, TBD-1 wt; test: competition ELISA: peptide titrated and pre-incubated with a constant concentration of TBD-1, then added to plate-bound biotinylated TROP2; blocked ligand TROP2 (2.m7)
T14 construct: Fab; the heavy chain entry is VH-CH1; also called wild-type anti-TROP2 Fab (hRS7); TROP2 Fab

B1: PC-8 (bispecific antibody)
light: GGVDFCGLYHWPICYQGGGGSGGLSGRSDAGSPLGLAGSGGSDIQLTQSPSSLSASVGDRVSITCKASQDVSIAVAWYQQKPGKAPKLLIYSASYRYTGVPDRFSGSGSGTDFTLTISSLQPEDFAVYYCQQHYITPLTFGAGTKVEIKRTVAAPSVFIFPPSDEQLKSGTASVVCLLNNFYPREAKVQWKVDNALQSGNSQESVTEQDSKDSTYSLSSTLTLSKADYEKHKVYACEVTHQGLSSPVTKSFNRGEC
heavy: not shown
notes: Masked polypeptide complex: anti-TROP2 D109A, anti-CD3 wt
In the case of B1, the “H292 Cytotoxicity EC50 (pM)” value [1] is reported as 14600 pM, the “HCT116 Cytotoxicity EC50 (pM)” value [1] is reported as > 100000 pM and the “CyTROP2 HEK293 EC50 (pM)” value [2] is reported as 3450 pM. The EC50 [3] was 86 nM, the EC50 [4] was 187 nM and the EC50 [5] was 165 nM.

B2: PC-30 (bispecific antibody)
light: B1 light
heavy: not shown
notes: anti-TROP2 D109A
With B2 the EC50 [5] was 151 nM.

B3: TCE-8 (anti-CD3 scFv wt; anti-TROP2 D109A) (bispecific antibody)
light: DIQLTQSPSSLSASVGDRVSITCKASQDVSIAVAWYQQKPGKAPKLLIYSASYRYTGVPDRFSGSGSGTDFTLTISSLQPEDFAVYYCQQHYITPLTFGAGTKVEIKRTVAAPSVFIFPPSDEQLKSGTASVVCLLNNFYPREAKVQWKVDNALQSGNSQESVTEQDSKDSTYSLSSTLTLSKADYEKHKVYACEVTHQGLSSPVTKSFNRGEC
heavy: not shown
notes: scFv on the Fab heavy chain
Binder B3 has an EC50 [3] of 0.2 nM, an EC50 [4] of 0.57 nM and an EC50 [5] of 0.16 nM.

B4: PC-2 (bispecific antibody)
light: GGIDFCMLYNWPICAGGGGGSSGGSAAGLLAPPGGLSGRSDAGGGGSDIQLTQSPSSLSASVGDRVSITCKASQDVSIAVAWYQQKPGKAPKLLIYSASYRYTGVPDRFSGSGSGTDFTLTISSLQPEDFAVYYCQQHYITPLTFGAGTKVEIKRTVAAPSVFIFPPSDEQLKSGTASVVCLLNNFYPREAKVQWKVDNALQSGNSQESVTEQDSKDSTYSLSSTLTLSKADYEKHKVYACEVTHQGLSSPVTKSFNRGEC
heavy: not shown
notes: anti-TROP2 wt
B4 showed an EC50 [6] of 78.5 nM.

B5: PC-3 (bispecific antibody)
light: B4 light with I3V, M7K, L8I, N10S, I13V, A15H, G16Q
heavy: not shown
notes: anti-TROP2 wt
B5 showed an EC50 [6] of 64.6 nM.

B6: PC-4 (bispecific antibody)
light: not shown
heavy: GGIDFCMLYNWPICAGGGGGSSGGSAAGLLAPPGGLSGRSDAGGGGSQVQLQQSGSELKKPGASVKVSCKASGYTFTNYGMNWVKQAPGQGLKWMGWINTYTGEPTYTDDFKGRFAFSLDTSVSTAYLQISSLKADDTAVYFCARGGFGSSYWYFDVWGQGSLVTVSSASTKGPSVFPLAPSSKSTSGGTAALGCLVKDYFPEPVTVSWNSGALTSGVHTFPAVLQSSGLYSLSSVVTVPSSSLGTQTYICNVNHKPSNTKVDKKVEPKSC
notes: anti-TROP2 wt
With B6 the EC50 [6] was 32.8 nM.

B7: TCE-11 (anti-CD3 scFv H101A; anti-TROP2 wt) (bispecific antibody)
light: B3 light
heavy: not shown
notes: scFv on the Fab heavy chain; also called TCE-11 (H101A)
B7 showed an EC50 [7] of 60.9 nM, an EC50 [8] of 6.92 nM and an EC50 [9] of 1.28 nM. For the same binder, the EC50 [10] was 1.36 nM, the EC50 [11] was 1.05 nM and the EC50 [12] was 0.83 nM. It also gave an EC50 [13] of 6.94 nM.

B8: TCE-13 (anti-CD3 scFv N103A; anti-TROP2 wt) (bispecific antibody)
light: B3 light
heavy: not shown
notes: scFv on the Fab heavy chain; also called TCE-13 (N103A)
With B8 the EC50 [8] was 2.71 nM, the EC50 [9] was 0.34 nM and the EC50 [12] was 0.36 nM. The EC50 [13] was 1.69 nM and the EC50 [14] was 1.69 nM.

B9: TCE-14 (anti-CD3 scFv F104A; anti-TROP2 wt) (bispecific antibody)
light: B3 light
heavy: not shown
notes: scFv on the Fab heavy chain; also called TCE-14 (F104A)
B9 gave an EC50 [8] of 1.52 nM, an EC50 [11] of 0.88 nM and an EC50 [12] of 0.66 nM. The EC50 [13] was 1.93 nM, the EC50 [15] was 0.63 nM and the EC50 [14] was 0.83 nM.

B10: TCE-35 (anti-CD3 scFv N30Q, I109V, G172A, V231A; anti-TROP2 wt) (bispecific antibody)
light: B3 light
heavy: not shown
notes: scFv on the Fab heavy chain
B10 was tested, and the EC50 [16] was 0.171 nM.

B11: Peptide-77 (peptide)
peptide: YLCGPDTDETLACY
modifications: cysteine pairing not given here; also: biotinylated, site not given here
notes: mask peptide for the CD3 scFv
B11 showed an IC50 [17] of 8870 nM.

B12: Peptide-9 (peptide)
peptide: VDFCYLYNWPVCSK
B12: binds [18].

B13: Peptide-11 (peptide)
peptide: VDFCALYNWPVCET
B13: binds [18].

B14: Peptide-15 (peptide)
peptide: LDFCKLYQWPVCFT
B14: binds [18].
